First the molecules themselves.
B1: R2b-E8 (VHH)
VHH: QVQLVESGGGLVQPGGSLRLSCAASGSFFSRYRMGWYRQAPGEQRELVAGITYDDSTNYAGSVKGRFTISRDNAKNTVHLQMNSLKPEDTAVYYCNLNPPGNLYWGQGTQVTVSS
B2: R2a-F9 (VHH)
VHH: QVQLVESGGGLVQPGGSLRLSCSASGSISSIVTMGWYRQAPGKERELVAVIGNYGNTNYADSVKGRFTVSRDNAKNTVYLQMNSLNVEDTAMYVCKFSSTVAPHEYWGQGTQVTVSS
B3: R1a-F5 (VHH)
VHH: QLQLVESGGGLVQVGGSLRLSCAASGFPFDGYAIAWFRQAPGKEREGVSCRASDGNTYYAESLKGRLTMSTDNAKNTVYLQMNSLKPEDTAVYYCAAASWVASLWSPSEYDYWGQGTQVTVSS
B4: R2b-D8 (VHH)
VHH: QVQLVESGGGLVQPGGSLRLSCAASGFTFSWYDVGWYRRAPGKERELVADIASTRGTTNYADSVKGRFTISRDNAKNSVYLQMNSLKPEDTAVYYCNTRRDWRDYWGQGIQVTVSS
B5: R1a-G5 (VHH)
VHH: QLQLVESGGGLVQPGGSLRLSCAASGSISRIVTMGWYRQASGKERELVAVIGNYGNTNYADSVKGRFTVSRDNAKDTAYLQMNGLNVEDTAIYYCKTSTTTPPYEYWGQGTQVTVSS
B6: R1a-F4 (VHH)
VHH: B5 VHH with L2V, A40G, S41P, G84N, I92M, T97C, Y104H, Y106F
B7: R1a-G6 (VHH)
VHH: QVQLVESGGGLVQSGGSLRLSCAASGSMSRIITMGWYRQAPGMERELVAVIGNNDNTVYGDSVQGRFTVSRDNAKNTAYLQMNSLNAEDTAMYYCKISTLTPPHEYWGQGTQVTVSS
B8: R2a-B9 (VHH)
VHH: QVQLVESGGGLVQPGGSLRLSCAASGSAFSINAMGWYRQAPGEEREFVAAITAGGNTYYADSAKARFTISRDNAKNMLYLQMNSLKPEDTAMYYCAATKAFGIATITADYELWGQGTQVTVSS
B9: R2b-D9 (VHH)
VHH: QVQLVESGGGLVQPGGSLRLSCLASGSAFSLYTMGWYRQAPGNQRELVAAITSGESTNYADSVKGRFTISRDNAKNTVYLQMNSLKPEDTAVYYCNADPLSTGWGQYSYWGQGTQVTVSS
B10: R1a-E5 (VHH)
VHH: QLQLVESGGGLVQPGGSLRLSCTASGFSLDNYAIGWFRRAPGEEREGVSFITSTSAVTKYADSVKGRFTISRDNAKNTVYLQMTSLKPEDTAVYYCAGTRWVPTMKADEYNYWGQGTQVTVSS
B11: R1a-H6 (VHH)
VHH: QVQLVESGGGLVQAGDSLRLSCTASVLTFSLYRVGWFRQAPGKEREFVAAIDWGDGPTTYADSVKGRFTISRDNAERTAYLQINSLKPEDTAVYYCGAGNTGSSDRSSSYVHWGQGTQVTVSS
B12: R1a-E6 (VHH)
VHH: QVQLVESGGGLVQPGGSLRLSCAASGFTLGAYAIAWFRQAPGKEREGVSCISPSDSFTEYGDSVKGRFTVSRDNAKNTVYLQMNSLQPEDTAVYYCAADPVCTAGWYRPSRFDLWGQGTQVTVSS
B13: R2a-G9 (VHH)
VHH: QVQLVESGGGLVQPGGSLRLSCAASDNIFSFYTMGWYRQSPGKERELVAVIGNGGNTNYADSVKGRFTISRDNGKNKAHLQMNSLKPEDTAVYYCKASGPGGVEVWGQGTQVTVSS
B14: R1a-B6 (VHH)
VHH: QVQLVESGGGLVQPGGSLRLSCAASGSFFSRYRMGWYRQAPGEQRELVASIAYDGSTSYADPVKGRFTISRDNANTVHLQMYSLKPDDTAVYYCNLDPPGILYWGQGTQVTVSS
B15: R2a-H9 (VHH)
VHH: QVQLVESGGGLVQPGGSLRLSCAASTNIASFYTMGWYRQTPGQQRDVVAVIGNGGNTNYADSVKGRFTISRDGAKNTAHLQMNSLKPEDTDVYYCKASGPGGVILWGQGTQVTVSS
B16: R1a-C5 (VHH)
VHH: QVQLVESGGGLVQPGGSLRLSCAASNDIFSFYTMGWYLQAIGKQREPVAVIGNGGNTNYAESVKGRFTISRDGAKNTAYLQMNSLKPEDTAVYYCMASGPGGLNVWGQGTQVTVSS
B17: R2a-G8 (VHH)
VHH: QLQLAESGGGLVQAGGSLRLSCAASGSTLNNNAIGWFRQAPGKEREGVSCMNSRDGTTNYADSVKGRFTISRDVAKNTVYLQMNSLKPEDTAVYFCAVKGFAPFLIGCPWGKAEYDYWGQGTQVTVSS
B18: R2a-E8 (VHH)
VHH: QLQLVESGGGLVQPGGSLRLSCTASGDIFVMYMIDWYRQAPGKQRELVASIDGRGTPMYADSVKGRFTISRDNAKNTVYLQMNSLKPEDTAVYSCHAKSPLVDNEYWGQGTQVTVSS
B19: R1a-A5 (VHH)
VHH: QVQLVESGGGLVQPGGSLRLSCSASGSAVLFSTYPMSWYRQAPGKQRELVAAVTTDGSTSYADYAKGRFTISRDNAKNTVYLQMNSLKPEDTAVYYCNARDGFFNRYDYWGQGTQVTVSS

Changes are numbered by the printed parent chain.

The first assay addresses T1, recombinant H2 A/Japan/305/1957 (H2N2) (Influenza A virus A/Japan/305/1957 …, UniProt P03451 16-525). Briefly: SPR, single cycle kinetics.
Regarding B1, the binding result is on record as “no binding (tested: 100 nM)”.
In the case of B2, the binding result was “no binding (tested: 100 nM)”.
Regarding B3, the binding result was “no binding (tested: 100 nM)”.
As for B4, the binding result is on record as “no binding (tested: 100 nM)”.
The same measure, in the same setting: as for B5, the entry is “no binding (tested: 100 nM)”.
Same read-out and setting: as for B6, the entry is “no binding (tested: 100 nM)”; as for B7, “no binding (tested: 100 nM)”.
B8: the binding result is reported as “no binding (tested: 100 nM)”.
The same measure, in the same setting: as for B9, the entry is “no binding (tested: 100 nM)”.
On to B10, for which the binding result was “no binding (tested: 100 nM)”.
Take B11: the binding result is “no binding (tested: 100 nM)”.
On the same count and under the same terms, as for B12, the entry is “no binding (tested: 100 nM)”; as for B13, “no binding (tested: 100 nM)”.

Another assay has as its target full length recombinant H1 residues 18-530 derived from A/California/06/09 (Influenza A virus A/California/06/09 (H1N1)). Briefly: SPR, single cycle kinetics, HA immobilised. For orientation: In SPR one partner is held on a chip, and binding of the other changes the refractive index at the surface.
Consider B1, for which the equilibrium dissociation constant (Kd) (commonly the free concentration of one partner at which half of the binding sites on the other are occupied at equilibrium, for simple one-to-one binding) was 8.2 nM.
The same measure, in the same setting: as for B2, the figure is 60 nM.
Same read-out and setting: the same measure for B14: 0.7 nM; for B3: 9.2 nM.
Consider B15, for which the Kd came out at 2.8 nM.
In the case of B5, the Kd stood at 24 nM.
Still for that read-out and setting: the same measure for B6: 7.3 nM; for B7: 4.4 nM.
Still for that read-out and setting: as for B16, the figure is 1.9 nM; as for B8, 0.2 nM.
On to B17, for which the Kd is 3.1 nM.
On to B18, for which the Kd worked out at 0.8 nM.
On the same count and under the same terms, as for B9, the figure is 0.4 nM; as for B10, 0.6 nM.
Take B12: the Kd worked out at 22.8 nM.
As to B19, the Kd worked out at 3.3 nM.
Still for that read-out and setting: the same measure for B13: 62 nM.

The target of a further assay is recombinant H5 A/Vietnam/1203/04 (H5N1) (Influenza A virus A/Vietnam/1203/04 (H5N1)). The assay can be described thus: SPR, single cycle kinetics, HA immobilised.
For B1, the Kd is 3.6 nM.
The same measure, in the same setting: the same measure for B14: 1.7 nM; for B16: 2.7 nM.
Take B17: the Kd was 9 nM.
For B9, the Kd came out at 1.6 nM.
Still for that read-out and setting: the same measure for B11: 241 nM; for B19: 0.7 nM.

The target in another assay is recombinant H9 A/HongKong/1073/99 (H9N2) (Influenza A virus A/HongKong/1073/99 (H9N2)). Briefly: SPR, single cycle kinetics, HA immobilised.
Turning to B1, the Kd is 87 nM.
Same read-out and setting: the same measure for B14: 7.6 nM; for B16: 22 nM.
B9: the Kd was 59 nM.

The target of a further assay is Recombinant haemagglutinin HA1 domain (18-344) (A/California/06/09) H1N1 (Influenza A virus A/California/06/09 (H1N1)). The assay can be described thus: SPR, single cycle kinetics, HA1 domain immobilised.
As for B2, the Kd was 79 nM.
For the molecule B3, the Kd came out at 6.1 nM.
On the same count and under the same terms, as for B15, the figure is 4.7 nM; as for B5, 26 nM.
As for B6, the Kd turned out to be 4.7 nM.
On the same count and under the same terms, as for B7, the figure is 4.6 nM; as for B16, 734 nM; as for B17, 7.7 nM.
For B12, the Kd amounted to 36 nM.
On the same count and under the same terms, the same measure for B13: 69 nM.

The next assay addresses T1, recombinant H2 A/Japan/305/1957 (H2N2). The assay can be described thus: SPR, single cycle kinetics, HA immobilised.
With B14, the Kd worked out at 43 nM.
The same measure, in the same setting: as for B15, the figure is 40 nM; as for B16, 67 nM; as for B17, 39 nM.
On to B18, for which the Kd was 34 nM.
Turning to B19, the Kd came out at 186 nM.
